{"source": "patent US20240376170A1", "about": "(BRIGHT PEAK THERAPEUTICS, published 2024)", "binders": {"B1": {"name": "CMP-310, MMP2 cleaved molecule (ligand)", "chain": "APTSSSTKKTQLQLEHLLLDLQKILNGINNYKNPKLTR[Nle]L[hSer][Yn3]KF[Ygp][Nle]PKKATELKHLQCLEEELKPLEEVL[hSer]LAQSKNFHLRPRDLISNINVIVLELKGSETTF[hSer]CEYADETATIVEFLNRWITFSQSIISTLT", "modifications": "also: m73 after MMP2 cleavage: Lys23 side-chain branch (cleavable peptide) cut, remnant not given here"}, "B2": {"name": "CMP-310, Matriptase cleaved molecule (ligand)", "chain": "APTSSSTKKTQLQLEHLLLDLQKILNGINNYKNPKLTR[Nle]L[hSer][Yn3]KF[Ygp][Nle]PKKATELKHLQCLEEELKPLEEVL[hSer]LAQSKNFHLRPRDLISNINVIVLELKGSETTF[hSer]CEYADETATIVEFLNRWITFSQSIISTLT", "modifications": "also: m73 after matriptase cleavage: Lys23 side-chain branch (cleavable peptide) cut, remnant not given here"}, "B3": {"name": "CMP-310, uPa cleaved molecule (ligand)", "chain": "APTSSSTKKTQLQLEHLLLDLQKILNGINNYKNPKLTR[Nle]L[hSer][Yn3]KF[Ygp][Nle]PKKATELKHLQCLEEELKPLEEVL[hSer]LAQSKNFHLRPRDLISNINVIVLELKGSETTF[hSer]CEYADETATIVEFLNRWITFSQSIISTLT", "modifications": "also: m73 after uPa cleavage: Lys23 side-chain branch (cleavable peptide) cut, remnant not given here"}, "B4": {"name": "CMP-311, MMP2 cleaved molecule (ligand)", "chain": "APTSSSTKKTQLQLEHLLLDLQKILNGINNYKNPKLTR[Nle]L[hSer][Yn3]KF[Ygp][Nle]PKKATELKHLQCLEEELKPLEEVL[hSer]LAQSKNFHLRPRDLISNINVIVLELKGSETTF[hSer]CEYADETATIVEFLNRWITFSQSIISTLT", "modifications": "also: m77 after MMP2 cleavage: Lys23 side-chain branch (cleavable peptide) cut, remnant not given here"}, "B5": {"name": "CMP-311, Matriptase cleaved molecule (ligand)", "chain": "APTSSSTKKTQLQLEHLLLDLQKILNGINNYKNPKLTR[Nle]L[hSer][Yn3]KF[Ygp][Nle]PKKATELKHLQCLEEELKPLEEVL[hSer]LAQSKNFHLRPRDLISNINVIVLELKGSETTF[hSer]CEYADETATIVEFLNRWITFSQSIISTLT", "modifications": "also: m77 after matriptase cleavage: Lys23 side-chain branch (cleavable peptide) cut, remnant not given here"}, "B6": {"name": "CMP-311, uPa cleaved molecule (ligand)", "chain": "APTSSSTKKTQLQLEHLLLDLQKILNGINNYKNPKLTR[Nle]L[hSer][Yn3]KF[Ygp][Nle]PKKATELKHLQCLEEELKPLEEVL[hSer]LAQSKNFHLRPRDLISNINVIVLELKGSETTF[hSer]CEYADETATIVEFLNRWITFSQSIISTLT", "modifications": "also: m77 after uPa cleavage: Lys23 side-chain branch (cleavable peptide) cut, remnant not given here"}, "B7": {"name": "CMP-313, MMP2 cleaved molecule (ligand)", "chain": "APTSSSTKKTQLQLEHLLLDLQKILNGINNYKNPKLTR[Nle]L[hSer][Yn3]KF[Ygp][Nle]PKKATELKHLQCLEEELKPLEEVL[hSer]LAQSKNFHLRPRDLISNINVIVLELKGSETTF[hSer]CEYADETATIVEFLNRWITFSQSIISTLT", "modifications": "also: m81 after MMP2 cleavage: Lys23 side-chain branch (cleavable peptide) cut, remnant not given here"}, "B8": {"name": "CMP-313, Matriptase cleaved molecule (ligand)", "chain": "APTSSSTKKTQLQLEHLLLDLQKILNGINNYKNPKLTR[Nle]L[hSer][Yn3]KF[Ygp][Nle]PKKATELKHLQCLEEELKPLEEVL[hSer]LAQSKNFHLRPRDLISNINVIVLELKGSETTF[hSer]CEYADETATIVEFLNRWITFSQSIISTLT", "modifications": "also: m81 after matriptase cleavage: Lys23 side-chain branch (cleavable peptide) cut, remnant not given here"}, "B9": {"name": "CMP-313, uPa cleaved molecule (ligand)", "chain": "APTSSSTKKTQLQLEHLLLDLQKILNGINNYKNPKLTR[Nle]L[hSer]Y(9x polyethylene glycol‑azido)KFY(8x polyethylene glycol‑amino)[Nle]PKKATELKHLQCLEEELKPLEEVL[hSer]LAQSKNFHLRPRDLISNINVIVLELKGSETTF[hSer]CEYADETATIVEFLNRWITFSQSIISTLT", "modifications": "also: K23 side chain attached to another sequence, m81 after uPa cleavage, product not given here as a sequence"}, "B10": {"name": "CMP-314, MMP2 cleaved molecule (ligand)", "chain": "APTSSSTKKTQLQLEHLLLDLQKILNGINNYKNPKLTR[Nle]L[hSer]Y(9x polyethylene glycol‑azido)KFY(8x polyethylene glycol‑amino)[Nle]PKKATELKHLQCLEEELKPLEEVL[hSer]LAQSKNFHLRPRDLISNINVIVLELKGSETTF[hSer]CEYADETATIVEFLNRWITFSQSIISTLT", "modifications": "also: K23 side chain attached to another sequence, m85 after MMP2 cleavage, product not given here as a sequence"}, "B11": {"name": "CMP-314, Matriptase cleaved molecule (ligand)", "chain": "APTSSSTKKTQLQLEHLLLDLQKILNGINNYKNPKLTR[Nle]L[hSer]Y(9x polyethylene glycol‑azido)KFY(8x polyethylene glycol‑amino)[Nle]PKKATELKHLQCLEEELKPLEEVL[hSer]LAQSKNFHLRPRDLISNINVIVLELKGSETTF[hSer]CEYADETATIVEFLNRWITFSQSIISTLT", "modifications": "also: matriptase cleavage product, not given here as a sequence, Lys23 side-chain attachment remnant unknown"}, "B12": {"name": "CMP-314, uPa cleaved molecule (ligand)", "chain": "APTSSSTKKTQLQLEHLLLDLQKILNGINNYKNPKLTR[Nle]L[hSer]Y(9x polyethylene glycol‑azido)KFY(8x polyethylene glycol‑amino)[Nle]PKKATELKHLQCLEEELKPLEEVL[hSer]LAQSKNFHLRPRDLISNINVIVLELKGSETTF[hSer]CEYADETATIVEFLNRWITFSQSIISTLT", "modifications": "also: uPa cleavage product, not given here as a sequence, Lys23 side-chain attachment remnant unknown"}, "B13": {"name": "CMP-315, MMP2 cleaved molecule (ligand)", "chain": "APTSSSTKKTQLQLEHLLLDLQKILNGINNYKNPKLTR[Nle]L[hSer]Y(9x polyethylene glycol‑azido)KFY(8x polyethylene glycol‑amino)[Nle]PKKATELKHLQCLEEELKPLEEVL[hSer]LAQSKNFHLRPRDLISNINVIVLELKGSETTF[hSer]CEYADETATIVEFLNRWITFSQSIISTLT", "modifications": "also: K23 side chain attached to another sequence, m89 after MMP2 cleavage, product not given here as a sequence"}, "B14": {"name": "CMP-315, Matriptase cleaved molecule (ligand)", "chain": "APTSSSTKKTQLQLEHLLLDLQKILNGINNYKNPKLTR[Nle]L[hSer]Y(9x polyethylene glycol‑azido)KFY(8x polyethylene glycol‑amino)[Nle]PKKATELKHLQCLEEELKPLEEVL[hSer]LAQSKNFHLRPRDLISNINVIVLELKGSETTF[hSer]CEYADETATIVEFLNRWITFSQSIISTLT", "modifications": "also: matriptase cleavage product, not given here as a sequence, Lys23 side-chain attachment remnant unknown"}, "B15": {"name": "CMP-315, uPa cleaved molecule (ligand)", "chain": "APTSSSTKKTQLQLEHLLLDLQKILNGINNYKNPKLTR[Nle]L[hSer]Y(9x polyethylene glycol‑azido)KFY(8x polyethylene glycol‑amino)[Nle]PKKATELKHLQCLEEELKPLEEVL[hSer]LAQSKNFHLRPRDLISNINVIVLELKGSETTF[hSer]CEYADETATIVEFLNRWITFSQSIISTLT", "modifications": "also: uPa cleavage product, not given here as a sequence, Lys23 side-chain attachment remnant unknown"}}, "note": "[ ]: non-standard residue; d: D form. 8x polyethylene glycol‑amino = O-(8x polyethylene glycol-amino)-tyrosine, SITE 45; 9x polyethylene glycol‑azido = O-(9x polyethylene glycol-azido)-tyrosine, SITE 42; Ygp = O-(8x polyethylene glycol-amino)-tyrosine (Tyr, amino-capped PEG8); Yn3 = O-(9x polyethylene glycol-azido)-tyrosine (Tyr, azide-capped PEG9); hSer = N[C@@H](CCO)C(=O)O; Nle = CCCC[C@H](N)C(=O)O", "data": [{"molecular_target": "T1, IL-2 receptor βγ complex (human, UniProt P14784 27-551; P31785 23-369)", "T1 sequence (looked up) 1": "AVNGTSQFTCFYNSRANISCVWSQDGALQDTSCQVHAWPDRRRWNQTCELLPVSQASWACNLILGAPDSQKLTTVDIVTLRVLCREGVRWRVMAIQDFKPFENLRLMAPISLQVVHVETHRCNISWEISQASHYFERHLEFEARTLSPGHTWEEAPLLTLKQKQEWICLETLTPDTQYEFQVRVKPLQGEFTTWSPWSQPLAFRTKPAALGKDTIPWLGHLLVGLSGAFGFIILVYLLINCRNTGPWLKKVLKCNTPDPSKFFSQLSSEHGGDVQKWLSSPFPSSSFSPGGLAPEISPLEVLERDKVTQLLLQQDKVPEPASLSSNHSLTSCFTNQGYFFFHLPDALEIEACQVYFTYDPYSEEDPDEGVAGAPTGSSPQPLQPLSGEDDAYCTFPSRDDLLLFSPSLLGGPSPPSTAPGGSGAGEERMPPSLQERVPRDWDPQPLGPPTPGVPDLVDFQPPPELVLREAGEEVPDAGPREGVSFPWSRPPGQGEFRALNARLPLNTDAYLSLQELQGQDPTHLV", "T1 sequence (looked up) 2": "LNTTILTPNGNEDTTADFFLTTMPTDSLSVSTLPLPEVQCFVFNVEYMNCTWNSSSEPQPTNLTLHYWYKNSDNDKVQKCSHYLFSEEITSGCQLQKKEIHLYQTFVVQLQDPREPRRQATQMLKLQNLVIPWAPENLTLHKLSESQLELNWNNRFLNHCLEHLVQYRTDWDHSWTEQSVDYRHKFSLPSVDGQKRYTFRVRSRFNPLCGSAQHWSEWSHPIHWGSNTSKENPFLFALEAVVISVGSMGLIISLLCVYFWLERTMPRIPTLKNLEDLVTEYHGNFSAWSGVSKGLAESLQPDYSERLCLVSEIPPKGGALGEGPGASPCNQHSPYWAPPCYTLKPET", "assay": "cell-based or functional assay", "units": {"Average EC50, pSTAT5 Assay in NK cells": "nM"}, "values": [{"binder": "B1", "Average EC50, pSTAT5 Assay in NK cells": 4.07}, {"binder": "B2", "Average EC50, pSTAT5 Assay in NK cells": 6.9}, {"binder": "B3", "Average EC50, pSTAT5 Assay in NK cells": 6.79}, {"binder": "B4", "Average EC50, pSTAT5 Assay in NK cells": 0.073}, {"binder": "B5", "Average EC50, pSTAT5 Assay in NK cells": 0.512}, {"binder": "B6", "Average EC50, pSTAT5 Assay in NK cells": 0.548}, {"binder": "B7", "Average EC50, pSTAT5 Assay in NK cells": 0.035}, {"binder": "B8", "Average EC50, pSTAT5 Assay in NK cells": 0.714}, {"binder": "B9", "Average EC50, pSTAT5 Assay in NK cells": 0.081}, {"binder": "B10", "Average EC50, pSTAT5 Assay in NK cells": 0.04}, {"binder": "B11", "Average EC50, pSTAT5 Assay in NK cells": 0.117}, {"binder": "B12", "Average EC50, pSTAT5 Assay in NK cells": 0.065}, {"binder": "B13", "Average EC50, pSTAT5 Assay in NK cells": 0.369}, {"binder": "B14", "Average EC50, pSTAT5 Assay in NK cells": 0.387}, {"binder": "B15", "Average EC50, pSTAT5 Assay in NK cells": 0.335}]}]}
